# In patent US9803013B2, “Biological materials and uses thereof” (BioInvent International AB, priority 2005, dated 2017):
# T1: ICAM-2 (Homo sapiens, UniProt P13598)
# T1 sequence (P13598 25-275): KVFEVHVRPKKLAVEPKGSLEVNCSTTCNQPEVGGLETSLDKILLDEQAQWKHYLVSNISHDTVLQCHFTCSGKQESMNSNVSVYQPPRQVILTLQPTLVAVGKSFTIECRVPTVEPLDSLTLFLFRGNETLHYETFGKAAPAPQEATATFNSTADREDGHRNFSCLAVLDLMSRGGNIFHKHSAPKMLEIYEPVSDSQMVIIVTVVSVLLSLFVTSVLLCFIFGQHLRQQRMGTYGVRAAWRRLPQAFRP
# B1: B11: fully human IgG1 antibody specific for ICAM-1; VH and VL sequences of FIG. 10 (SEQ ID NOs. 6 and 8) (antibody, listed as Homo sapiens, V domains shown)
# VH: EVQLLESGGGLVQPGGSLRLSCAASGFTFSNAWMSWVRQAPGKGLEWVAFIWYDGSNKYYADSVKGRFTISRDNSKNTLYLQMNSLRAEDTAVYYCARYSGWYFDYWGQGTLVTVSS
# VL: QSVLTQPPSASGTPGQRVTISCTGSSSNIGAGYDVHWYQQLPGTAPKLLIYDNNNRPSGVPDRFSGSKSGTSASLAISGLRSEDEADYYCQSYDSSLSAWLFGGGTKLTVLG
# Tests used:
# ICAM-2 = target: T1, ICAM-2; test: Binding to recombinant ICAM family protein
# RPMI-8226 myeloma tumors = test: Established RPMI-8226 tumors in SCID mice with macrophage or NK cell depletion; format: in vivo, mouse
# From the text: Fc-FcγR-interactions, in addition to enhancing antibody induced negative signalling and tumor PCD (Wilson et al., 2011), may involve both innate and adaptive arms of cellular immunity (Alduaij and Illidge, 2011; Park et al., 2010). Different approaches to assess the role of NK cells and macrophages were used—two principal cell types capable of conferring FcγR dependent antitumor effects—for BI-505 therapeutic activity; Firstly, the relative abundance of these cell types in tumor tissue harvested from BI-505 or control antibody treated mice were examined. […] In contrast, very few intratumoral NK cells could be detected (CD49b^+ CD31^− cells). […] To verify this macrophages or NK cells were depleted, using clodronate liposomes and anti-asialo antibodies respectively, from SCID mice bearing established RPMI-8226 myeloma tumors and examined the effect on BI-505 anti-myeloma activity. A period of three weeks of macrophage and NK cell depletion was chosen as read out since this was the longest time-period where neither treatment affected animal well-being. […] Tumors of macrophage depleted BI-505 treated mice had doubled in size compared with tumors from animals receiving BI-505 treatment alone (VBI-505=95±39 mm^3, VBI-505+clodro=189±94 mm^3, p<0.001), but were similarly sized compared to tumors from control antibody treated mice (Vctrl IgG=198±90 mm^3, p>0.05). NK cell depletion, in contrast, had little or no effect on BI-505 antitumor activity. […]
# Treatment with antibodies by intraperitoneal injection started either 1 day after cell inoculation (prophylactic model) or when tumors reached approximately 100 mm^3 (established model). […] Macrophage and NK cell depletion was assessed upon termination of tumor bearing mice exposed to effector cell depleting agents (see above), spleens were removed and splenocytes isolated by mincing through a cell strainer (70 μm nylon mesh, BD Falcon 352350), erythrocytes were removed by lysis according to manufacturer (BD Pharm Lyse 555899, BD Biosciences). […]
# PBMC = PBMC cytokine release; format: cell-based, human; conditions: immobilized (air-dried or wet coated) or in solution
# Description: (FIG. 23D) Antibody-induced PBMC cytokine release. PBMC cytokine release was measured by ELISA of cell culture supernatants for IL-1β, IL-2, IL-6, IL-8, IFN-γ and TNF-α following incubation of cells in plates coated with hyper cross-linked (air-dried “A” or wet coated “W”) BI-505, isotype control, or positive control Okt-3 antibody.
# (FIG. 23E) Antibody-induced cytokine release in LPS-primed PBMC. PBMC were incubated with titrated LPS and concentrations yielding submaximal cellular release of IL-1β. (100 pg/ml), IL-6 (10 pg/ml), IL-8 (10 pg/ml), and TNF-α (10 pg/ml) were determined (arrows, left panel), and used in subsequent experiments assessing antibody (BI-505 or ctrl IgG) effects on cytokine release from LPS-primed PBMC (right panel). Treatment with 100 ng/ml LPS served as positive control for robust cytokine release.
# Cytokine release and T cell proliferation are thought to be common causes of mild and severe adverse reactions to antibody therapy. In order to further investigate any undesirable effects of BI-505 on ICAM-1 expressing immune cells, we therefore assessed putative effects of BI-505 on peripheral blood mononuclear cell (PBMC) cytokine release and T cell proliferation. […]
# For cell culture cytokine quantifications, cells were seeded in 96-well cell culture wet and air-dried coated plates at a density of 1×10^6 cells/mL and cultured with antibodies for 24 hr. […]
molecule,measurement,setting,value
B1,binding to recombinant protein,ICAM-2,not to ICAM-2 or ICAM-3
same,tumor volume,"RPMI-8226 myeloma tumors; BI-505 treatment alone, three weeks",95±39 mm^3
same,tumor volume,RPMI-8226 myeloma tumors; NK cell depleted (anti-asialo) BI-505 treated mice,130±53 mm^3
same,tumor volume,RPMI-8226 myeloma tumors; macrophage depleted (clodronate liposomes) BI-505 treated mice,189±94 mm^3
same,PBMC cytokine release,PBMC,"did not, however, induce PBMC cytokine release"
